# Test results: patent publication US20030171565
# Tested on: protein zero related (PZR), tyrosine-phosphorylated
# Sequence (chain, as listed by the source): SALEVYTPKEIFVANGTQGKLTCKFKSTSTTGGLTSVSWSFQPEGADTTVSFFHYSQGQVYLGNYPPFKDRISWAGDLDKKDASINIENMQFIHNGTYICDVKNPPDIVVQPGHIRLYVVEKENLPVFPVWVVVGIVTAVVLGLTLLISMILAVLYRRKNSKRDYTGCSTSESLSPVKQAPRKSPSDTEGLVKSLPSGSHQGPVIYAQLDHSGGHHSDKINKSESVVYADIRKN
substance,measurement,value
tyrosine phosphatase SHP-1,dephosphorylation of purified p43 in vitro (anti-phosphotyrosine Western blot),SHP-1 only produced a partial dephosphorylation
